Data on 1 molecule can be found in patent publication US20210324061A1 (ARGENX BVBA, published 2021).

The test has as its target T1, human GARP-TGF-β1 complex (recombinant complex of human GARP and latent human TGF-β1) (human, UniProt Q14392 20-627; P01137 30-278; P01137 279-390).
T1 construct: also called huGARP-TGF-β1; hGARP-TGF-β1
In words: SPR, Fab off-rate on human GARP-TGF-β1 complex.

T1 sequence (Q14392 20-627 limits assumed, chain 1 of 3): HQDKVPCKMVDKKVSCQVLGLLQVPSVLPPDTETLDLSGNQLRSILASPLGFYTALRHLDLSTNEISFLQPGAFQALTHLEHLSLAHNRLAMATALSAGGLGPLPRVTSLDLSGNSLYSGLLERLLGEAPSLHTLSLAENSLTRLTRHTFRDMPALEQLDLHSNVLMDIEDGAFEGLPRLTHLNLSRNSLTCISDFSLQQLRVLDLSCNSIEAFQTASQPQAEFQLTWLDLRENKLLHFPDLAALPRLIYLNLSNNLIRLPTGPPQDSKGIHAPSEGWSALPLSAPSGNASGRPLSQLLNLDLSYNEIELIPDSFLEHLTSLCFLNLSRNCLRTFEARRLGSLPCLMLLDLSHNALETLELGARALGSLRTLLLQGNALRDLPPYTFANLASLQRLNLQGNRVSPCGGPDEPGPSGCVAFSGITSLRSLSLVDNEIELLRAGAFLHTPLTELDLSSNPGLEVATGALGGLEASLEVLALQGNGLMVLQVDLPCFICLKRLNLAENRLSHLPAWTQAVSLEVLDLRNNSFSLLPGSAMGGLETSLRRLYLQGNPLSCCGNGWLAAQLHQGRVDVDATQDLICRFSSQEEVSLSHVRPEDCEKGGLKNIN
T1 sequence (P01137 30-278 limits assumed, chain 2 of 3): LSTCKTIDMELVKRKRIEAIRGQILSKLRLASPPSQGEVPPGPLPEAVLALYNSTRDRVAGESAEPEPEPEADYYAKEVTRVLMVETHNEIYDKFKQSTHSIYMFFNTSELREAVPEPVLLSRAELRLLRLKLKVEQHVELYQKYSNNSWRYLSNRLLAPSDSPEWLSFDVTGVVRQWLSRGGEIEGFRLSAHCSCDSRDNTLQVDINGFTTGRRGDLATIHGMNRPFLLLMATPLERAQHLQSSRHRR
T1 sequence (P01137 279-390 limits assumed, chain 3 of 3): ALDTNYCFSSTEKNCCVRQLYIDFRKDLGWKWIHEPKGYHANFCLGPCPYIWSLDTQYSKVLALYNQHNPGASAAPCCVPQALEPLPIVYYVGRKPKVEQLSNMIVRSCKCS

B1: Fab 17H5 (Fab of LHG-10.6) (Fab, V domains shown)
VH: EVQLVQPGAELRNSGASVKVSCKASGYRFTSYYIDWVRQAPGQGLEWMGRIDPEDGGTKYAQKFQGRVTFTADTSTSTAYVELSSLRSEDTAVYYCARNEWETVVVGDLMYEYEYWGQGTQVTVSS
VL: DIQMTQSPSSLSASLGDRVTITCQASQSISSYLAWYQQKPGQAPNILIYGASRLKTGVPSRFSGSGSGTSFTLTISGLEAEDAGTYYCQQYASVPVTFGQGTKVELK
notes: Parental, non-germlined Fab
In the case of B1, the koff turned out to be 0.000201 s⁻¹.
